{
  "source": "paper PMC6633393",
  "about": "(Journal of cell science, 2019)",
  "biological_target": "Histidine-tagged human TEAD4 (amino acids 217–434) (human, UniProt Q15561 217-434)",
  "sequence (Q15561 217-434)": "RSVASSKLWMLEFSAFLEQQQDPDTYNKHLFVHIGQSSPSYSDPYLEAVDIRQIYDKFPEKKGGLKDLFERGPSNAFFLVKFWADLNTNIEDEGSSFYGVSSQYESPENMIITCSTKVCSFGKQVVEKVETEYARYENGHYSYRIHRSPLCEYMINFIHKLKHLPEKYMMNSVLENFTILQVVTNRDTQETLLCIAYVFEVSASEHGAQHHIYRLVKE",
  "test": "native gel or EMSA; TEAD4 incubated with increasing concentrations of VGLL3 peptide before labelled YAP was added; 10 min at room temperature; 10% native gel at 100 V; only labelled YAP is seen",
  "settings": "both partners purified",
  "data": [
    {"binder": "SRCVLFTYFQGDIGSVVDEHFSRALGQ (peptide, UniProt A8MV65 86-112, looked up)", "note": "[Unlabelled human VGLL3 (amino acids 86–112) peptide]", "values": [
      {"measurement": "binding result", "result": "binds"}
    ]}
  ]
}
